From patent US20190284289A1 (Eli Lilly, published 2019)

Legend:
human RANKL [1] = target: T1, human RANKL (human, UniProt O14788 158-317, limits assumed); assay: cell-based or functional assay
T1 sequence: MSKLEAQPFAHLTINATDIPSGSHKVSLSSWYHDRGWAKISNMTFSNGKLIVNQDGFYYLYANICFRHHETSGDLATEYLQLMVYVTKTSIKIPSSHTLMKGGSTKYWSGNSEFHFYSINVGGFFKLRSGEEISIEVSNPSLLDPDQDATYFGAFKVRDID

rat RANKL = target: T2, rat RANKL (rat, UniProt Q9ESE2 141-318, limits assumed); assay: SPR (BIAcore 2000), antibody captured on Protein A, RANKL as analyte, 25 C; rat RANKL
T2 construct: Construct not described
T2 sequence (looked up): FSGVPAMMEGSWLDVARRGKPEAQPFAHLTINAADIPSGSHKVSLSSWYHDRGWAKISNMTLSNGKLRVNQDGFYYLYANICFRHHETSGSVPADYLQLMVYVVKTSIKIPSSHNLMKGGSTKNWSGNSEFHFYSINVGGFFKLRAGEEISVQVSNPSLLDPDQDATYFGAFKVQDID

human RANKL [2] = target: T1, human RANKL; assay: SPR (BIAcore 2000), antibody captured on Protein A, RANKL as analyte, 25 C; human RANKL
Method: The BIAcore® 2000 instrument is used to measure binding affinity. All measurements are performed at 25° C. 2 ug/mL of exemplified antibody of Example 1 is dissolved in HBS-EP buffer (150 mM sodium chloride, 3 mM EDTA, 0.005% (w/v) surfactant P-20, and 10 mM HEPES, pH7.4). Protein A is immobilized on flow cells 1 to 4 of a CM4 sensor chip at a level of 500 response units (Rus) using an amine coupling kit.
Binding is evaluated using multiple analytical cycles. Each cycle is performed at a flow rate of 20 uL/minute. About 10 uL of the exemplified antibody of Example 1, at a concentration of 2 ug/mL, is injected, aiming to capture about 100-200Rus; 250 uL of human RANKL (starting at 5 nM and using two-fold serial dilutions for each cycle) is injected, ten minutes is given for dissociation, and 10 uL of 10 mM glycine hydrochloride, pH 1.5 is used for regeneration. Association and dissociation rates for each cycle are evaluated using a “1:1 with mass transfer” binding model in the BIAevaluation software.

mouse RANKL = target: T3, mouse RANKL (mouse, UniProt O35235 158-316, limits assumed); assay: SPR (BIAcore 2000), antibody captured on Protein A, RANKL as analyte, 25 C; mouse RANKL
T3 construct: Construct not described; also called murine RANKL
T3 sequence (looked up): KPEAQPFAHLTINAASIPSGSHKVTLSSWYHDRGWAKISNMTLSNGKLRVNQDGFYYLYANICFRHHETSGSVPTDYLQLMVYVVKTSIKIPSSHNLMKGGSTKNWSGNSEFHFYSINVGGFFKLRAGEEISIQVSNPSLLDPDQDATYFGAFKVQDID

B1: exemplified antibody of Example 1 (antibody, human IgG4 S228P, kappa, F234A L235A, V domains shown)
VH: QVQLVQSGAEVKKPGSSVKVSCKASGYAFTNYYIEWVRQAPGQGLEWMGVINPGWGDTNYNEKFKGRVTITADKSTSTAYMELSSLRSEDTAVYYCARRDTAHGYYALDPWGQGTTVTVSS
VL: DIQMTQSPSSLSASVGDRVTITCKASQNVGTNVAWYQQKPGKAPKLLIYSASYRYSGVPSRFSGSGSGTDFTLTISSLQPEDFATYYCQQYWDYPLTFGGGTKVEIKR
notes: also called the antibody; anti-RANKL antibody
IC50, neutralization of human RANKL induced NF-kB driven luciferase luminescence in HEK293 cells expressing human RANK (human RANKL [1]): 0.069 nM
Kd (rat RANKL): 0.0344 nM
Kd (human RANKL [2]): 0.00282 nM
Kd (mouse RANKL): 0.00664 nM
